Earlier results in PMC5331060.
Like-named read-outs stand apart in the source and are kept apart here.

Experiments:
[1] = molecular target: beta clamp (Escherichia coli) (UniProt P0A988)
[2] = molecular target: beta clamp (Escherichia coli) (UniProt P0A988); remark: listed apart in the source

Sequence of UniProt P0A988 (P0A988 whole entry): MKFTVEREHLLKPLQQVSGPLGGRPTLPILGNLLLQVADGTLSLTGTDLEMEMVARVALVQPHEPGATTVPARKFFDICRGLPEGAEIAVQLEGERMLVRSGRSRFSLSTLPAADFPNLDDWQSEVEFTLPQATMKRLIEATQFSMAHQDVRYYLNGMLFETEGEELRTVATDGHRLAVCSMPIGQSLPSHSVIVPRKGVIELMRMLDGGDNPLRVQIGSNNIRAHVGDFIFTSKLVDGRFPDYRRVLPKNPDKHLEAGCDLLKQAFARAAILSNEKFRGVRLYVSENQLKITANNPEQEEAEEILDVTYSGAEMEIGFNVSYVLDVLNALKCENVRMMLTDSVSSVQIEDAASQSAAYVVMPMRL

Row | Substance | Kd [1] | Kd [2]
1 | DinB (Pol IV) (from UniProt Q47155) | 460 nM | 
2 | Pol III alpha (from UniProt P10443) |  | 108 nM
